# Substrate: CC1=CC(=O)c2ccccc2C1=O
# Assay: Chemical redox cycling by DCXR
# Format: biochemical, human
# Details: other: redox cycling; quinone varied; 200 μM NADPH fixed; pH 7.0
protein,measurement,value
recombinant human DCXR (Homo sapiens) (protein) MELFLAGRRVLVTGAGKGIGRGTVQALHATGARVVAVSRTQADLDSLVRECPGIEPVCVDLGDWEATERALGSVGPVDLLVNNAAVALLQPFLEVTKEAFDRSFEVNLRAVIQVSQIVARGLIARGVPGAIVNVSSQCSQRAVTNHSVYCSTKGALDMLTKVMALELGPHKIRVNAVNPTVVMTSMGQATWSDPHKAKTMLNRIPLGKFAEVEHVVNAILFLLSDRSGMTTGSTLPVEGGFWAC,Km,365.80 µM
same,kcat,0.022 s⁻¹
same,kcat/Km,66.7 M⁻¹ s⁻¹
